This passage reports expression_or_secretion results from publication PMC6579858.

A short description of the data set: FACS of transfected HeLa. The note with it: glycan lost; control: wild type MOG.

B1: myelin oligodendrocyte glycoprotein (MOG): N31A (protein)
parent chain: MASLSRPSLPSCLCSFLLLLLLQVSSSYAGQFRVIGPRHPIRALVGDEVELPCRISPGKNATGMEVGWYRPPFSRVVHLYRNGKDQDGDQAPEYRGRTELLKDAIGEGKVTLRIRNVRFSDEGGFTCFFRDHSYQEEAAMELKVEDPFYWVSPGVLVLLAVLPVLLLQITVGLIFLCLQYRLRGKLRAEIENLHRTFDPHFLRVPCWKITLFVIVPVLGPLVALIICYNWLHRRLAGQFLEELRNPF
Turning to B1, the expression_or_secretion result is given as “no change”.

B2: myelin oligodendrocyte glycoprotein (MOG): N31D (protein)
parent chain: B1 parent chain
Consider B2, for which the expression_or_secretion result is reported as “no change”.
